{
  "source": "the supplement of paper PMC5998384",
  "key": {"[1]": {"test_system": "HeLa Kyoto", "assay": "solubility change mitosis vs G1/S (difference of NP-40 vs SDS log2 ratios) (log2 ratio difference); higher = more soluble in mitosis"}, "[2]": {"test_system": "HeLa Kyoto", "assay": "solubility in G1/S (NP-40 vs SDS abundance) (log2 ratio); higher = more soluble", "settings": "cell cycle stage: G1/S"}},
  "data": [
    {"substance": "MNRSRAIVQRGRVLPPPAPLDTTNLAGRRTLQGRAKMASVPVYCLCRLPYDVTRFMIECDMCQDWFHGSCVGVEEEKAADIDLYHCPNCEVLHGPSIMKKRRGSSKGHDTHKGKPVKTGSPTFVRELRSRTFDSSDEVILKPTGNQLTVEFLEENSFSVPILVLKKDGLGMTLPSPSFTVRDVEHYVGSDKEIDVIDVTRQADCKMKLGDFVKYYYSGKREKVLNVISLEFSDTRLSNLVETPKIVRKLSWVENLWPEECVFERPNVQKYCLMSVRDSYTDFHIDFGGTSVWYHVLKGEKIFYLIRPTNANLTLFECWSSSSNQNEMFFGDQVDKCYKCSVKQGQTLFIPTGWIHAVLTPVDCLAFGGNFLHSLNIEMQLKAYEIEKRLSTADLFRFPNFETICWYVGKHILDIFRGLRENRRHPASYLVHGGKALNLAFRAWTRKEALPDHEDEIPETVRTVQLIKDLAREIRLVEDIFQQNVGKTSNIFGLQRIFPAGSIPLTRPAHSTSVSMSRLSLPSKNGSKKKGLKPKELFKKAERKGKESSALGPAGQLSYNLMDTYSHQALKTGSFQKAKFNITGACLNDSDDDSPDLDLDGNESPLALLMSNGSTKRVKSLSKSRRTKIAKKVDKARLMAEQVMEDEFDLDSDDELQIDERLGKEKATLIIRPKFPRKLPRAKPCSDPNRVREPGEVEFDIEEDYTTDEDMVEGVEGKLGNGSGAGGILDLLKASRQVGGPDYAALTEAPASPSTQEAIQGMLCMANLQSSSSSPATSSLQAWWTGGQDRSSGSSSSGLGTVSNSPASQRTPGKRPIKRPAYWRTESEEEEENASLDEQDSLGACFKDAEYIYPSLESDDDDPALKSRPKKKKNSDDAPWSPKARVTPTLPKQDRPVREGTRVASIETGLAAAAAKLAQQELQKAQKKKYIKKKPLLKEVEQPRPQDSNLSLTVPAPTVAATPQLVTSSSPLPPPEPKQEALSGSLADHEYTARPNAFGMAQANRSTTPMAPGVFLTQRRPSVGSQSNQAGQGKRPKKGLATAKQRLGRILKIHRNGKLLL [PHF8]", "values": [
      {"measurement": "solubility change mitosis (log2)", "setting": "[1]", "value": 0.336},
      {"measurement": "solubility in G1/S (log2)", "setting": "[2]", "value": -0.765}
    ]},
    {"substance": "MAAAAASGAGGAAGAGTGGAGPAGRLLPPPAPGSPAAPAAVSPAAGQPRPPAPASRGPMPARIGYYEIDRTIGKGNFAVVKRATHLVTKAKVAIKIIDKTQLDEENLKKIFREVQIMKMLCHPHIIRLYQVMETERMIYLVTEYASGGEIFDHLVAHGRMAEKEARRKFKQIVTAVYFCHCRNIVHRDLKAENLLLDANLNIKIADFGFSNLFTPGQLLKTWCGSPPYAAPELFEGKEYDGPKVDIWSLGVVLYVLVCGALPFDGSTLQNLRARVLSGKFRIPFFMSTECEHLIRHMLVLDPNKRLSMEQICKHKWMKLGDADPNFDRLIAECQQLKEERQVDPLNEDVLLAMEDMGLDKEQTLQSLRSDAYDHYSAIYSLLCDRHKRHKTLRLGALPSMPRALAFQAPVNIQAEQAGTAMNISVPQVQLINPENQIVEPDGTLNLDSDEGEEPSPEALVRYLSMRRHTVGVADPRTEVMEDLQKLLPGFPGVNPQAPFLQVAPNVNFMHNLLPMQNLQPTGQLEYKEQSLLQPPTLQLLNGMGPLGRRASDGGANIQLHAQQLLKRPRGPSPLVTMTPAVPAVTPVDEESSDGEPDQEAVQSSTYKDSNTLHLPTERFSPVRRFSDGAASIQAFKAHLEKMGNNSSIKQLQQECEQLQKMYGGQIDERTLEKTQQQHMLYQQEQHHQILQQQIQDSICPPQPSPPLQAACENQPALLTHQLQRLRIQPSSPPPNHPNNHLFRQPSNSPPPMSSAMIQPHGAASSSQFQGLPSRSAIFQQQPENCSSPPNVALTCLGMQQPAQSQQVTIQVQEPVDMLSNMPGTAAGSSGRGISISPSAGQMQMQHRTNLMATLSYGHRPLSKQLSADSAEAHSLNVNRFSPANYDQAHLHPHLFSDQSRGSPSSYSPSTGVGFSPTQALKVPPLDQFPTFPPSAHQQPPHYTTSALQQALLSPTPPDYTRHQQVPHILQGLLSPRHSLTGHSDIRLPPTEFAQLIKRQQQQRQQQQQQQQQQEYQELFRHMNQGDAGSLAPSLGGQSMTERQALSYQNADSYHHHTSPQHLLQIRAQECVSQASSPTPPHGYAHQPALMHSESMEEDCSCEGAKDGFQDSKSSSTLTKGCHDSPLLLSTGGPGDPESLLGTVSHAQELGIHPYGHQPTAAFSKNKVPSREPVIGNCMDRSSPGQAVELPDHNGLGYPARPSVHEHHRPRALQRHHTIQNSDDAYVQLDNLPGMSLVAGKALSSARMSDAVLSQSSLMGSQQFQDGENEECGASLGGHEHPDLSDGSQHLNSSCYPSTCITDILLSYKHPEVSFSMEQAGV [SIK3]", "values": [
      {"measurement": "solubility change mitosis (log2)", "setting": "[1]", "value": 0.04},
      {"measurement": "solubility in G1/S (log2)", "setting": "[2]", "value": -0.387}
    ]},
    {"substance": "MDPSADTWDLFSPLISLWINRFYIYLGFAVSISLWICVQIVIKTQGKNLQEKSVPKAAQDLMTNGYVSLQEKDIFVSGVKIFYGSQTGTAKGFATVLAEAVTSLDLPVAIINLKEYDPDDHLIEEVTSKNVCVFLVATYTDGLPTESAEWFCKWLEEASIDFRFGKTYLKGMRYAVFGLGNSAYASHFNKVGKNVDKWLWMLGAHRVMSRGEGDCDVVKSKHGSIEADFRAWKTKFISQLQALQKGERKKSCGGHCKKGKCESHQHGSEEREEGSHEQDELHHRDTEEEEPFESSSEEEFGGEDHQSLNSIVDVEDLGKIMDHVKKEKREKEQQEEKSGLFRNMGRNEDGERRAMITPALREALTKQGYQLIGSHSGVKLCRWTKSMLRGRGGCYKHTFYGIESHRCMETTPSLACANKCVFCWRHHTNPVGTEWRWKMDQPEMILKEAIENHQNMIKQFKGVPGVKAERFEEGMTVKHCALSLVGEPIMYPEINRFLKLLHQCKISSFLVTNAQFPAEIRNLEPVTQLYVSVDASTKDSLKKIDRPLFKDFWQRFLDSLKALAVKQQRTVYRLTLVKAWNVDELQAYAQLVSLGNPDFIEVKGVTYCGESSASSLTMAHVPWHEEVVQFVHELVDLIPEYEIACEHEHSNCLLIAHRKFKIGGEWWTWIDYNRFQELIQEYEDSGGSKTFSAKDYMARTPHWALFGASERGFDPKDTRHQRKNKSKAISGC [TYW1]", "values": [
      {"measurement": "solubility change mitosis (log2)", "setting": "[1]", "value": -0.205},
      {"measurement": "solubility in G1/S (log2)", "setting": "[2]", "value": -0.157}
    ]},
    {"substance": "MAADLNLEWISLPRSWTYGITRGGRVFFINEEAKSTTWLHPVTGEAVVTGHRRQSTDLPTGWEEAYTFEGARYYINHNERKVTCKHPVTGQPSQDNCIFVVNEQTVATMTSEEKKERPISMINEASNYNVTSDYAVHPMSPVGRTSRASKKVHNFGKRSNSIKRNPNAPVVRRGWLYKQDSTGMKLWKKRWFVLSDLCLFYYRDEKEEGILGSILLPSFQIALLTSEDHINRKYAFKAAHPNMRTYYFCTDTGKEMELWMKAMLDAALVQTEPVKRVDKITSENAPTKETNNIPNHRVLIKPEIQNNQKNKEMSKIEEKKALEAEKYGFQKDGQDRPLTKINSVKLNSLPSEYESGSACPAQTVHYRPINLSSSENKIVNVSLADLRGGNRPNTGPLYTEADRVIQRTNSMQQLEQWIKIQKGRGHEEETRGVISYQTLPRNMPSHRAQIMARYPEGYRTLPRNSKTRPESICSVTPSTHDKTLGPGAEEKRRSMRDDTMWQLYEWQQRQFYNKQSTLPRHSTLSSPKTMVNISDQTMHSIPTSPSHGSIAAYQGYSPQRTYRSEVSSPIQRGDVTIDRRHRAHHPKHVYVPDRRSVPAGLTLQSVSPQSLQGKTLSQDEGRGTLYKYRPEEVDIDAKLSRLCEQDKVVHALEEKLQQLHKEKYTLEQALLSASQEIEMHADNPAAIQTVVLQRDDLQNGLLSTCRELSRATAELERAWREYDKLEYDVTVTRNQMQEQLDHLGEVQTESAGIQRAQIQKELWRIQDVMEGLSKHKQQRGTTEIGMIGSKPFSTVKYKNEGPDYRLYKSEPELTTVAEVDESNGEEKSEPVSEIETSVVKGSHFPVGVVPPRAKSPTPESSTIASYVTLRKTKKMMDLRTERPRSAVEQLCLAESTRPRMTVEEQMERIRRHQQACLREKKKGLNVIGASDQSPLQSPSNLRDNPFRTTQTRRRDDKELDTAIRENDVKPDHETPATEIVQLKETEPQNVDFSKELKKTENISYEMLFEPEPNGVNSVEMMDKERNKDKMPEDVTFSPQDETQTANHKPEEHPEENTKNSVDEQEETVISYESTPEVSRGNQTMAVKSLSPSPESSASPVPSTQPQLTEGSHFMCV [PLEKHA5]", "values": [
      {"measurement": "solubility change mitosis (log2)", "setting": "[1]", "value": 0.0805},
      {"measurement": "solubility in G1/S (log2)", "setting": "[2]", "value": -0.128}
    ]},
    {"substance": "ALG12", "values": [
      {"measurement": "solubility change mitosis (log2)", "setting": "[1]", "value": -0.0892},
      {"measurement": "solubility in G1/S (log2)", "setting": "[2]", "value": -0.268}
    ]},
    {"substance": "MPVQAPQWTDFLSCPICTQTFDETIRKPISLGCGHTVCKMCLNKLHRKACPFDQTTINTDIELLPVNSALLQLVGAQVPEQQPITLCSGVEDTKHYEEAKKCVEELALYLKPLSSARGVGLNSTTQSVLSRPMQRKLVTLVHCQLVEEEGRIRAMRAARSLGERTVTELILQHQNPQQLSSNLWAAVRARGCQFLGPAMQEEALKLVLLALEDGSALSRKVLVLFVVQRLEPRFPQASKTSIGHVVQLLYRASCFKVTKRDEDSSLMQLKEEFRTYEALRREHDSQIVQIAMEAGLRIAPDQWSSLLYGDQSHKSHMQSIIDKLQTPASFAQSVQELTIALQRTGDPANLNRLRPHLELLANIDPSPDAPPPTWEQLENGLVAVRTVVHGLVDYIQNHSKKGADQQQPPQHSKYKTYMCRDMKQRGGCPRGASCTFAHSQEELEKFRKMNKRLVPRRPLSASLGQLNEVGLPSAAILPDEGAVDLPSRKPPALPNGIVSTGNTVTQLIPRGTDPSYDSSLKPGKIDHLSSSAPGSPPDLLESVPKSISALPVNPHSIPPRGPADLPPMPVTKPLQMVPRGSQLYPAQQTDVYYQDPRGAAPPFEPAPYQQGMYYTPPPQCVSRFVRPPPSAPEPAPPYLDHYPPYLQERVVNSQYGTQPQQYPPIYPSHYDGRRVYPAPSYTREEIFRESPIPIEIPPAAVPSYVPESRERYQQIESYYPVAPHPTQIRPSYLREPPYSRLPPPPQPHPSLDELHRRRKEIMAQLEERKVISPPPFAPSPTLPPTFHPEEFLDEDLKVAGKYKGNDYSQYSPWSCDTIGSYIGTKDAKPKDVVAAGSVEMMNVESKGMRDQRLDLQRRAAETSDDDLIPFGDRPTVSRFGAISRTSKTIYQGAGPMQAMAPQGAPTKSINISDYSPYGTHGGWGASPYSPHQNIPSQGHFSERERISMSEVASHGKPLPSAEREQLRLELQQLNHQISQQTQLRGLEAVSNRLVLQREANTLAGQSQPPPPPPPKWPGMISSEQLSLELHQVEREIGKRTRELSMENQCSLDMKSKLNTSKQAENGQPEPQNKVPAEDLTLTFSDVPNGSALTQENISLLSNKTSSLNLSEDPEGGGDNNDSQRSGVTPSSAP [RC3H1]", "values": [
      {"measurement": "solubility change mitosis (log2)", "setting": "[1]", "value": -0.0375},
      {"measurement": "solubility in G1/S (log2)", "setting": "[2]", "value": 0.308}
    ]},
    {"substance": "CIC", "values": [
      {"measurement": "solubility change mitosis (log2)", "setting": "[1]", "value": -0.0541},
      {"measurement": "solubility in G1/S (log2)", "setting": "[2]", "value": -0.00578}
    ]},
    {"substance": "MESKGASSCRLLFCLLISATVFRPGLGWYTVNSAYGDTIIIPCRLDVPQNLMFGKWKYEKPDGSPVFIAFRSSTKKSVQYDDVPEYKDRLNLSENYTLSISNARISDEKRFVCMLVTEDNVFEAPTIVKVFKQPSKPEIVSKALFLETEQLKKLGDCISEDSYPDGNITWYRNGKVLHPLEGAVVIIFKKEMDPVTQLYTMTSTLEYKTTKADIQMPFTCSVTYYGPSGQKTIHSEQAVFDIYYPTEQVTIQVLPPKNAIKEGDNITLKCLGNGNPPPEEFLFYLPGQPEGIRSSNTYTLTDVRRNATGDYKCSLIDKKSMIASTAITVHYLDLSLNPSGEVTRQIGDALPVSCTISASRNATVVWMKDNIRLRSSPSFSSLHYQDAGNYVCETALQEVEGLKKRESLTLIVEGKPQIKMTKKTDPSGLSKTIICHVEGFPKPAIQWTITGSGSVINQTEESPYINGRYYSKIIISPEENVTLTCTAENQLERTVNSLNVSAISIPEHDEADEISDENREKVNDQAKLIVGIVVGLLLAALVAGVVYWLYMKKSKTASKHVNKDLGNMEENKKLEENNHKTEA [ALCAM]", "values": [
      {"measurement": "solubility change mitosis (log2)", "setting": "[1]", "value": -0.0197},
      {"measurement": "solubility in G1/S (log2)", "setting": "[2]", "value": 0.38}
    ]}
  ]
}
